± gives the uncertainty stated by the source.
Experiment: protein stability index of a GFP-peptide fusion (yeast GPS) (PSI 1-4); higher = more stable; sorted into four equal gates, so the index is relative within each strain
How it was run: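 Plasmids in a pooled yeast library fused tiled 17-residue yeast protein peptides downstream of GFP and also expressed Cherry. Mid-log cultures grown without leucine were sorted into four equal gates by GFP/Cherry fluorescence ratio. Each gate's plasmids were PCR-amplified and Illumina-sequenced, and reads were matched to strains by barcodes. The protein stability index is derived by multiplying each gate's read frequency by its gate number and summing the results.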

Sequence	protein stability index (doa10∆)	protein stability index (pdr5∆)	protein stability index (san1∆)	protein stability index (ubr1∆)
NPLAKTMADAVRELGIL [SEC65]	2.78 ± 0.058	2.3 ± 0.06	2.42 ± 0.075	1.84 ± 0.053
GHSLGEYAALASLADVM [FAS1]	2.27 ± 0.061	2.29 ± 0.057	1.92 ± 0.078	2.6 ± 0.059
KDENNTANDQYSSILGN [YCG1]	3.02 ± 0.047	3.2 ± 0.046	3.01 ± 0.032	3.08 ± 0.034
DPSRELNVIIDQLAVSP [YCS4]	2.79 ± 0.055	3.04 ± 0.062	2.72 ± 0.053	2.67 ± 0.05
VLRIPEEYLDANVFRLE [MTW1]	3.34 ± 0.1	3.44 ± 0.097	3.19 ± 0.072	3.23 ± 0.053
EINPFLLGTMAGGAADC [PRE2]	2.88 ± 0.18	3.22 ± 0.12	2.75 ± 0.15	2.61 ± 0.15
RVKVHFDQAGKKVSRRN [RPL13A]	3.46 ± 0.12	3.37 ± 0.1	3.26 ± 0.12	3.31 ± 0.079
EELILPNTKDAMSLYHS [PRP8]	3.18 ± 0.055	3.38 ± 0.043	3.36 ± 0.04	2.8 ± 0.042
AAKTRSYNWGAKAKRRH [RPL37A]	3.7 ± 0.15	3.39 ± 0.082	3 ± 0.099	3.49 ± 0.085
LLKDIFANNLKSAISNN [SIR4]	2.46 ± 0.044	2.48 ± 0.042	2.44 ± 0.043	2.44 ± 0.037
SKSENPVLSTIAFLVGL [SWI3]	3.01 ± 0.11	2.54 ± 0.085	2.26 ± 0.1	2.43 ± 0.057
VFLEFSLNFIPITASTS [YML103C/NUP188]	1.27 ± 0.068	1.34 ± 0.049	1.62 ± 0.097	1.48 ± 0.038
SLDTSASTINGASIIQV [YML103C/NUP188]	1.19 ± 0.081	1.44 ± 0.086	1.29 ± 0.12	1.14 ± 0.093
VFLYFEDNAGVIANPKG [RPL23A]	2.43 ± 0.11	1.96 ± 0.051	2.27 ± 0.12	1.9 ± 0.047
NEDSKAFHTAVLRLNAI [NUT1]	3.26 ± 0.058	3.34 ± 0.055	3.41 ± 0.047	3.27 ± 0.051
TVNEPQMSDKHATVVPP [SRB7]	2.73 ± 0.12	2.83 ± 0.11	2.89 ± 0.093	3.07 ± 0.092
LLKLERKKTEAVARLKS [SNF2]	1.89 ± 0.068	2.14 ± 0.083	2.06 ± 0.091	1.97 ± 0.061
RFMKGRRSKQLINLAKT [RPC82]	2.56 ± 0.1	2.78 ± 0.11	2.72 ± 0.074	2.62 ± 0.12
ELNVDSMDVDDKNSGVK [ITC1]	1.97 ± 0.1	1.27 ± 0.042	1.68 ± 0.1	1.43 ± 0.06
TDLMSIVQELLDKNLIK [RPC34]	3.39 ± 0.21	2.74 ± 0.17	–	3.15 ± 0.14
RAQRVAEKRDALLKEDA [RPL19A]	3.2 ± 0.17	3.04 ± 0.13	2.89 ± 0.14	3.47 ± 0.091
KMWFDVQLRYGDYDSHD [PRP8]	1.78 ± 0.12	2.06 ± 0.15	–	3.06 ± 0.2
NTSAQHVESDKITAKTQ [IRR1]	2.92 ± 0.05	2.99 ± 0.039	2.95 ± 0.05	3.08 ± 0.042
SPLLESDSIEKIVEIDR [PUP2]	3.48 ± 0.11	3.08 ± 0.1	2.59 ± 0.15	3.49 ± 0.14
DSLISGVKQKITIQLTR [BRR2]	1.44 ± 0.12	1.74 ± 0.064	2.66 ± 0.083	1.63 ± 0.073
FICSIIQTVVISLLALP [YML031W/NDC1]	1.43 ± 0.11	1.36 ± 0.076	1.34 ± 0.11	2.12 ± 0.11
LRDESLTVDNLSIAIVG [PRE5]	2.65 ± 0.075	2.26 ± 0.066	2.5 ± 0.06	2.93 ± 0.051

Sequence	protein stability index (doa10∆)	protein stability index (pdr5∆)	protein stability index (san1∆)	protein stability index (ubr1∆)
HEVEEILNELQPNARAL [SMC1]	3.09 ± 0.13	3.4 ± 0.12	3.1 ± 0.099	3.44 ± 0.069
PKGVILYGAPGTGKTLL [RPT2]	3.67 ± 0.27	–	–	3.13 ± 0.22
VQLLLHINSILLARVIQ [SNF11]	1.84 ± 0.12	1.27 ± 0.076	–	1.47 ± 0.087
EDFAPLLAEEEELILPN [PRP8]	3.14 ± 0.17	3.38 ± 0.15	2.93 ± 0.066	2.78 ± 0.1
RDLKPSNLEKLLFINSS [YML103C/NUP188]	1.93 ± 0.11	1.91 ± 0.093	1.66 ± 0.13	1.69 ± 0.1
EEAAGTKMFEDRREKAE [SMC2]	3.4 ± 0.15	3.36 ± 0.18	3.26 ± 0.089	3.6 ± 0.11
KYCEIMGDNSQLDFTEF [SNF2]	3.16 ± 0.085	3.2 ± 0.11	2.87 ± 0.1	3.29 ± 0.073
VTIREQINIMPSLKAHF [SIR3]	2.53 ± 0.077	2.83 ± 0.075	2.85 ± 0.059	2.68 ± 0.043
INVDNDPFFAQSEDLSH [YML103C/NUP188]	3.15 ± 0.055	3.08 ± 0.056	3.15 ± 0.044	3.05 ± 0.046
NTSVLMKLKLMIVYYKD [YCS4]	1.56 ± 0.15	1.56 ± 0.12	1.32 ± 0.21	1.29 ± 0.11
DSDELGGESMEGPKKCI [SNM1]	3.38 ± 0.086	3.51 ± 0.086	3.39 ± 0.076	3.4 ± 0.071
CSSATVPKHMLDKLDEI [AAR2]	2.79 ± 0.069	3.05 ± 0.088	2.98 ± 0.08	3.2 ± 0.067
AKKRRPAAKGKNLSFKR [RRP6]	2.9 ± 0.12	2.92 ± 0.09	2.67 ± 0.095	2.81 ± 0.085
VRTRGGNKKYRALRIET [RPS8A]	2.71 ± 0.032	2.52 ± 0.03	2.71 ± 0.031	2.853 ± 0.022
FTNVLTKYSDVLGFLQL [YJL039C/NUP192]	2.59 ± 0.072	2.07 ± 0.071	2.85 ± 0.053	2.01 ± 0.052
DESDTISFRSNLLKNFI [SNF6]	2.04 ± 0.084	2.55 ± 0.12	2.58 ± 0.15	2.41 ± 0.079
QHEQQKQQEQLEQQKQP [YMR153W/NUP53]	3.37 ± 0.056	3.35 ± 0.057	3.04 ± 0.049	3.15 ± 0.046
ATFTSIELTSYESIATY [RPN7]	1.75 ± 0.038	1.9 ± 0.04	1.77 ± 0.046	1.77 ± 0.025
RIIGLSATLPNYEDVGR [BRR2]	2.23 ± 0.045	2.18 ± 0.039	2.33 ± 0.044	1.94 ± 0.039
QFIKSNFEKILLTCYEL [SRB8]	–	3 ± 0.23	–	–
STLTTISGNPPLLYNSL [SRB5]	2.66 ± 0.043	2.46 ± 0.038	2.49 ± 0.043	2.56 ± 0.036
IDELIDTKLRLEKSKNE [YIL149C/MLP2]	2.62 ± 0.047	2.81 ± 0.045	2.8 ± 0.04	2.8 ± 0.032
HTKSDERSELLRLFNAP [SNF2]	2.83 ± 0.06	2.72 ± 0.065	2.78 ± 0.049	3.04 ± 0.06
LESGKETALEFLEKEKQ [SMC4]	3.62 ± 0.12	3.46 ± 0.11	3.17 ± 0.071	3.48 ± 0.079
IAATAVASLVLARGHRV [RPL4A]	2.6 ± 0.22	1.93 ± 0.19	2.08 ± 0.24	1.93 ± 0.09
AIQKKDNKDKEGNAGGD [YOR098C/NUP1]	3.44 ± 0.17	3.32 ± 0.18	3.25 ± 0.1	3.44 ± 0.11

Source: the supplement of paper PMC9732359
